Paper PMC8557471

Biological target: A. thaliana DCL1 DSRM1 (A. thaliana)
Assay: BLI

fold higher affinity than HYL1 DSRM1 for the same target: 3.4 fold
Substance: A. thaliana HYL1 DSRM2 (domain or fragment)
